Test results published in US8372580B2, “BRCA1 function-based cellular assays” (Morehouse School of Medicine, priority 2008, dated 2013).
Positions count from the first letter of the chain named. Names and notes keep the numbering of the source.

B1: BRCA1 (aa 1-182): amino-terminal BRCA1 fragment, residues 1-182, with N-terminal FLAG sequence (protein, UniProt P38398 1-182, looked up, fragment)
chain: MDLSALRVEEVQNVINAMQKILECPICLELIKEPVSTKCDHIFCKFCMLKLLNQKKGPSQCPLCKNDITKRSLQESTRFSQLVEELLKIICAFQLDTGLEYANSYNFAKKENNSPEHLKDEVSIIQSMGYRNRAKRLLQSEPENPSLQETSLSVQLSNLGTVRTLRTKQRIQPQKTSVYIEL
modifications: N-terminal FLAG tag
B2: BRCA1 (aa 1-182) Mutant #1: BRCA1 1-182 fragment point mutant 1; apparently K109R (protein, UniProt P38398 1-182, looked up, fragment K109R)
chain: B1 chain with K109R
B3: BRCA1 (aa 1-182) Mut#4: BRCA1 1-182 fragment point mutant 4; apparently C61G (protein, UniProt P38398 1-182, looked up, fragment C61G)
chain: B1 chain with C61G

tested on: ERα transcriptional activity in T47D breast cancer cells; assay: Cell based assay #2: ERE-luciferase reporter, E2-induced ERα activation by Ubc9 C93S; conditions: Ubc9 C93S (SUMO-independent), E2 1 μM
Method: T47D cells (5×10^5) were plated in 6-well plates for 24 hours. The cells were washed twice in PBS followed by the addition of phenol red free DMEM containing 5% charcoal-stripped FBS for 48 hrs before transfection. The cells were transfected with 1 μg of each of the indicated plasmids (with a total of 2.5 μg DNA) using lipofectamine 2000 (Life Technology, USA). The cells were induced with 1 μM of E2 4 hours after transfections, harvested after an additional 40 hrs and assayed for luciferase activity following the manufacturer's instructions. Each set of experiments was performed in triplicate and repeated a least three times.

Row | Molecule | inhibition of E2-mediated ERα transcription activation by Ubc9/C93S
1 | B1 | inhibit E2-mediated ERα transcription activation by Ubc9/C93S
2 | B2 | unlike their respective Mut #1 and Mut#4, inhibit
3 | B3 | unlike their respective Mut #1 and Mut#4, inhibit
